± gives the half width of the 95% confidence interval.
What was measured:
[1] = folding stability dG unfold from trypsin proteolysis; higher = more stable
Procedure: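 Folding stability of de novo designed mini-proteins (<80 aa, no Cys; designed by TrROS, TrMRF, ProteinMPNN and the joint model) was measured by cDNA display proteolysis with trypsin and chymotrypsin. Each protease was used at 11 concentrations in a threefold dilution series plus a no-protease condition. K50 was inferred by Bayesian fitting of sequencing counts, and dG unfold was derived against a sequence-predicted unfolded-state K50 (Tsuboyama et al. method). Sequences shown include variable-length N-terminal GS-type padding (SAGGSAGG...) inside a display construct carrying a PA tag. Rows were kept only if the AF2 dimer inter-PAE was >15, to exclude likely homo-oligomers.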

[2] = folding stability dG unfold from chymotrypsin proteolysis; higher = more stable
Outline: (§1)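 Sequencing followed digestion of designed mini-proteins with trypsin and chymotrypsin, each at 11 concentrations in threefold dilutions together with a no-protease condition. The mini-proteins were under 80 residues, had no cysteine, sat in a PA-tagged cDNA display construct, and were kept only if AlphaFold2 dimer inter-PAE was above 15. From the counts, Bayesian fitting gave K50, and unfolding free energy was derived against a sequence-predicted unfolded-state K50 and a shared folded-state K50, per protease or combined.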

[3] = folding stability dG unfold (combined trypsin and chymotrypsin); higher = more stable
Outline: as §1

| Sequence | folding stability dG unfold [1] [kcal/mol] | folding stability dG unfold [2] [kcal/mol] | folding stability dG unfold [3] [kcal/mol] |
| --- | --- | --- | --- |
| GFVLIPFRLDDPDVTAGEIAEEVEKALPPEYGPLRLRVFFEDGSVLELEPGEKLGEHFEPDDEILVLVEGDS [r1_56_TrMRF] | 1.24 ± 0.042 | 1.37 ± 0.12 | 1.22 ± 0.14 |
| GLAPRVYEVDALVTDENGVPRLYRVLVVETPLPDGTYRAVAFARDLDTTETRVLTLVSDRAVIGPDVPLTAS [r1_14_TrMRF] | 2.07 ± 0.044 | 2.24 ± 0.12 | 2.21 ± 0.15 |
| GMAPKTYTKEVEIKDSSGKPIKYKVTVTETALPDGSSESTITLTDPNSSKTTTINLSSPGKGLTPDDKILLS [r1_14_JUSTAS] | 0.562 ± 0.019 | 1.09 ± 0.087 | 0.899 ± 0.075 |
| GMIVEIVESPEGTVTLYEVLLPGGTPILVGAADEEKLRERVAKELGVSFEKLKITKTTTLSPEELAALLAAS [r1_119_JUSTAS] | 1.4 ± 0.02 | 1.73 ± 0.053 | 1.66 ± 0.14 |
| GMSVTSYETDPNTGGPSISISSAPDPKTGLLSAPVTVYDPKTGQSKTINLTATSSEELAAKIAELLPASLLS [r1_156_JUSTAS] | 1.39 ± 0.024 | 0.166 ± 0.17 | 0.97 ± 0.098 |
| GMVEVTEERFEPETGKRIVTIRAPGRDLTVTFDPSTGIATFYDPSDGRTFTVPFTSLEEAVEAAKELALEES [r1_177_JUSTAS] | 3.1 ± 0.07 | 4.81 ± 0.11 | 4.47 ± 0.11 |
| GPMTVSTKTSTKTYFDPETGVETVVEPVTVTVTFPTSPTVTYTTTVTTTTKVERLPDGPLRTETTTTTTVSS [r1_296_JUSTAS] | -0.135 ± 0.17 | -0.305 ± 0.38 | 0.0169 ± 0.14 |
| GPPLPVEVDAEVDVVPLPGGPALVVRRPVRFPVTRRIVVVEVVRLPDGSVVARVDVYDPGDGRPRTFTLPLS [r1_261_TrMRF] | 0.795 ± 0.04 | 2.373 ± 0.021 | 1.9 ± 0.043 |
| GSEIKAGRARSSDGTGRIRVVLEREDGSSVEFELDLPGLPGDTFYLDLPESLPLKAKETWVYVDDKPYPVTS [r1_70_TrMRF] | 0.665 ± 0.054 | 1.25 ± 0.037 | 1.08 ± 0.067 |
| GVVRPLGDPNGQLSIVATDPEGNLLVKALVPNDEAQVEAAKKELLAAMPGLDEKEVVFSIYDPLTGKTKILS [r1_55_JUSTAS] | 1.07 ± 0.1 | 1.61 ± 0.025 | 1.54 ± 0.12 |
| GYRPALAVVELGPNSRLLLRPPEGPSVEIEVESPEEALAAALKLLPKDQPLVLEVFDEGKLIETIPIEIPPS [r1_276_TrMRF] | 0.973 ± 0.036 | 1.87 ± 0.069 | 1.55 ± 0.095 |
| IEEIKNFAKKHGFNVKIEPVKVDSEEEAKEEAEDHEKKNGYPTIIIKNPENGEIVWVIKIRPPPPPPGQPPS [r1_179_TrROS] | 2.51 ± 0.22 | 3.89 ± 0.17 | 3.18 ± 0.31 |
| IRGMPVEEIKEIARDFFRKHGMKVTTVEIVPTPNGMTQVDIEIEPPDKGRRYRIDIYVPEDGMVQIDIEPYS [r1_460_TrROS] | 2.23 ± 0.071 | 2.54 ± 0.13 | 2.4 ± 0.24 |
| IVISPSMLRDARRQGIPKELLKKAKNVIIWSSNGNPEWAKELKEWPGVKKIKPVPPGDPDKQKDADHVIHFS [r1_248_TrROS] | -0.554 ± 0.55 | -0.673 ± 0.49 | -0.482 ± 0.29 |
| KGVVVGPDEPLVSDDGKLVVFPNAQITYDPKTGKPTIAFHVDPEALAQGDPEALKGLRDLAKELNIDELTPS [r1_438_TrMRF] | -0.156 ± 0.1 | 1.03 ± 0.044 | 0.692 ± 0.12 |
| KIHILPPGEPAKDPNGKTYEFPNMRIHRNPKNGKPTIYIPMDPEARDQGNPEALQWLRELVEELNIDKVEPS [r1_438_TrROS] | -0.623 ± 0.45 | 0.0516 ± 0.16 | -0.156 ± 0.16 |
| KIWIPNASWSQIKNIIRNAIKDGKERTIWIPMDPNMKPNIIDYLKDLPGIKDVEPYPNGWVKIEIDKAELKS [r1_324_TrROS] | 2 ± 0.059 | 3.23 ± 0.076 | 2.81 ± 0.18 |
| KKITIIIPSPDGYWVVIKIEWPNGRPINVFFRSPEELLNEIQRQLGMYPENFEITDIEVMPPDDLKEAMDNS [r1_119_TrROS] | 2.77 ± 0.1 | 3.39 ± 0.12 | 3.22 ± 0.11 |
| KKITVVRPAKTLEEVEQAVRDLLKELNIPEGTKVEVKVEEIPETGAFVATVTVTLPNGEKIEVTVLFPKLFS [r1_84_TrMRF] | 2.26 ± 0.092 | 2.95 ± 0.081 | 2.68 ± 0.09 |
| KKKKPPKVVKVEIKFDKKTKKITVKVDGKTFTITLPDGKKIEITVPAGMSEEEIKALAKKLAKELEEKLKKS [r1_25_TrROS_Hall] | 3.73 ± 0.12 | 1.97 ± 0.2 | 2.18 ± 0.55 |

Source: the supplement of paper PMC12764529
